Measurements from US20240076386A1 (Pfizer, published 2024).

T1: human E-selectin extracellular domain with 10 His purification tail (human, UniProt P16581 22-556)
T1 construct: also called soluable human E-selectin extracellular domain; rhE-Selectin
T1 sequence: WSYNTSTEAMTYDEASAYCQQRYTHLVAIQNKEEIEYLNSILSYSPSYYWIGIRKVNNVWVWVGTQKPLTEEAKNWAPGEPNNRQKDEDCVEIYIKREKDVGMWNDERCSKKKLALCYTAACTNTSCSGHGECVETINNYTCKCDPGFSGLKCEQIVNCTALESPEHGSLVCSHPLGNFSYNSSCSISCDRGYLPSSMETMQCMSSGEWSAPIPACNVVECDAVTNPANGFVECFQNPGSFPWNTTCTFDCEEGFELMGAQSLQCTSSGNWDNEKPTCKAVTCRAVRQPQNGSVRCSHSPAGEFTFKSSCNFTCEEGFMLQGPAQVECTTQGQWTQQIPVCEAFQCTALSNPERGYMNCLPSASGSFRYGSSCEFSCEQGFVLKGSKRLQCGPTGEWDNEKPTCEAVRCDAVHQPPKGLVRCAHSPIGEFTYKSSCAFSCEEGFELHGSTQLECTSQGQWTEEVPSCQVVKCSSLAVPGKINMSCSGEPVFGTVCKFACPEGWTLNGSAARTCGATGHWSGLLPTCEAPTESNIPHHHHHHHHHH

T2: mouse E-selectin extracellular domain with 10 His purification tail (mouse, UniProt Q00690 22-557)
T2 construct: also called soluable mouse E-selectin extracellular domain; muE-Selctin
T2 sequence: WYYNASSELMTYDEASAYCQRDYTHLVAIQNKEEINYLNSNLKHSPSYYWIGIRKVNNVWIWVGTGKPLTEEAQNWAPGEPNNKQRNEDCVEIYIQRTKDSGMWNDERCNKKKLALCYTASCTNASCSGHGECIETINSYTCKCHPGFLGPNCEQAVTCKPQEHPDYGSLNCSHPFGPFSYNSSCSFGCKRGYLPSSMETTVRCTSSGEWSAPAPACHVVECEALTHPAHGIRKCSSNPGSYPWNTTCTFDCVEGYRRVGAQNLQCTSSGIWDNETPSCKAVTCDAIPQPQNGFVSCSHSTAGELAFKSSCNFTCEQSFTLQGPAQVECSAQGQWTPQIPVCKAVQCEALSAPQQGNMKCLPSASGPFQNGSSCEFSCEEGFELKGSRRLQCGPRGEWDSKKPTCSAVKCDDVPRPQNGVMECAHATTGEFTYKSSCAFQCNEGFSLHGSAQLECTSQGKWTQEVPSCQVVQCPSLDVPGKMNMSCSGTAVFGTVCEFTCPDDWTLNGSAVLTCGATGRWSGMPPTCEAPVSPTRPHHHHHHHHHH

T3: soluble recombinant human E-selectin (R & D Systems, ADP1) (human, UniProt P16581 22-556)
T3 sequence (looked up): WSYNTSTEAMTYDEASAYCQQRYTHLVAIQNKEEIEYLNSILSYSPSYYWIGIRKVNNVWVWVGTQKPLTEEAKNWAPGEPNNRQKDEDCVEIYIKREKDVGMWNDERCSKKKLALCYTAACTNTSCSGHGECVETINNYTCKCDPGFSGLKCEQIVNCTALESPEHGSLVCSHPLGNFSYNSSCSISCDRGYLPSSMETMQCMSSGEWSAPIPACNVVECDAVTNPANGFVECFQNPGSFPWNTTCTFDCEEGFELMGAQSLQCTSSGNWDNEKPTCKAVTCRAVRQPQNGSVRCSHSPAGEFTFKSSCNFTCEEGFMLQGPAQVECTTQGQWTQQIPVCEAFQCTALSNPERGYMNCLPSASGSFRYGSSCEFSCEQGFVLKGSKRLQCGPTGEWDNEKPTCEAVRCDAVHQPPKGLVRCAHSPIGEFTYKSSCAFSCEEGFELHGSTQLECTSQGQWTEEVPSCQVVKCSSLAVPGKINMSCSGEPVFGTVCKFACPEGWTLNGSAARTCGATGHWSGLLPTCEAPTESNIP


Assays:
[1] = molecular target: T1, human E-selectin extracellular domain …; test: AlphaLISA competition vs sialyl Lewis A-PAA-biotin
Description: (§1) The neutralization ability of anti-E-selectin antibodies was measured in an AlphaLISA homogenous competition assay. […] This was incubated at room temperature for 15 minutes, followed by addition of 1.4 μL of human, mouse or cynomolgus monkey E-selectin added to a final concentration of 7 nM. This was again incubated at room temperature for 15 minutes. To this, 1.4 μL AlphaLISA beads was added (Ni-donor/SA-acceptor) for a final assay concentration of 10 μg/mL. This was incubated in the dark at room temperate for at least 10 hours. The plates were then read using the AlphaLISA protocol (Envision).

[2] = molecular target: T2, mouse E-selectin extracellular domain …; test: AlphaLISA competition vs sialyl Lewis A-PAA-biotin
Description: as §1

[3] = molecular target: T3, soluble recombinant human E-selectin (R …); test: cell-based or functional assay
[4] = molecular target: T1, human E-selectin extracellular domain …; test: SPR, antibody captured, E-selectin analyte
Description: To characterize binding of antibodies to human, cynomolgus monkey, and mouse E-selectin, an antibody was diluted to 0.5 μg/mL in HBS-EP+ and captured by the anti-human IgG immobilized on flow cells 2, 3 and 4 for 30 seconds to 1 minute at a flow rate of 10 μL/minute to achieve a capture level of 70 to 300 RU. Flow cell 1 was used as a reference surface. […] HBS-EP+ buffer cycles collected for each captured antibody were used for double-referencing (Myszka D G. J. Mol. Recognition 1999; 12(5):279-84). At the end of each cycle, the entire anti-IgG surface was regenerated by a 30 second pulse of 3 M MgCl₂ and a 30 second pulse of ionic buffer (1.83 M MgCl₂, 0.92 M Urea, 1.83 M Guanidine HCl, pH 7.4) (Andersson K. Analy. Chem. 1999; 71(13): 2475-81). Kinetic assays were conducted at 25° C. at a collection rate of 10 Hertz (Hz) on a BIAcore™ T200 instrument (GE Healthcare). Rate constants and affinities were determined by fitting the data to a 1:1 binding model in BIAcore™ T200 Evaluation software version 3.0 (GE Healthcare).

| EC50 [1] [nM] | EC50 [2] [nM] | neutralization of HL-60 cell binding under physiological flow to soluble human E-selectin protein IC50 (nM) [3] [nM] | Kd [4] [nM] | koff [4] [s⁻¹] | kon [4] [M⁻¹ s⁻¹] | t½ [4] [s] | Binder |
| --- | --- | --- | --- | --- | --- | --- | --- |
| < 1 | > 133 | 225 | 2940 | 0.666 | 262000 | 1.05 | anti-E-selectin antibody 0180 chimera (antibody, human IgG1, kappa, V domains shown, rat VH/VL on effector-null human IgG1 and human kappa) VH: EVQLQQSGAELGKPGTSVKLSCKVSGYKIRSSYMHWVNQRPGKGLEWIGRIDPANGNTIYGDKFKSKATLTSDTSSNTAYIQLSQLKSDDTAIYFCAIDIGTTFDYWGQGVMVTVSS VL: DIQMTQSPSFLSASVGDRVTINCKASQHINRYLNWYQQKLGEAPKLLIYDANNLQTGIPSRFSGSGSGTDFTLTISSLQPEDVATYFCLQHNSWPNTFGAGTKLELKR |
| < 1 | > 133 | 1.7 | 54.4 | 0.0113 | 207000 | 61.6 | anti-E-selectin antibody 0164 chimera (antibody, human IgG1, kappa, V domains shown, rat VH/VL on effector-null human IgG1 and human kappa) VH: EVQLQQSGAEFGKPGTSVKLSCKVSGYNIRSSYMHWVNQRPGKGLEWIGRIDPANGNTIYAEKFKIKAILTADSSSNTAYMQLSQLKSDDTAIYFCAMDLYSTSEYWGQGVMVTVSS VL: DIQMTQSPSFLSASVGDRVTINCKTSQNINRYLNWYQQKLGEAPKLLIYNANSLQTGIPSRFSASGSGTDFTLTINSLQPEDVATYFCLQDNSWPLTFGSGTKLEIKR |
| < 1 | > 133 | 265 | 68 | 0.00421 | 64200 | 174 | anti-E-selectin antibody 0039 chimera (antibody, human IgG1, kappa, V domains shown, rat VH/VL on effector-null human IgG1 and human kappa) VH: QVQLKETGPGLVQPTQTLSITCTVSGFSLTGYYMQWVRQTPGKGLEWMGFIRSSGSTEYNSEFKSRLSISRDTSKNQVFLKMNSLKTEDTGVYYCARCPYKYSSFVYVGVMDAWGQGAPVTVSS VL: EIVMTQSPTSMSTSIGERVTLNCKASQTVGINVDWYQQTPGQPPKLLIYGASNRHTGVPDRFTGSGFGRDFTLTISNVEAEDLAVYCCLQYGSIPHTFGPGTKLELKR |
| < 1 | > 133 | 17.9 | 21.6 | 0.00175 | 81000 | 397 | anti-E-selectin antibody 0158 chimera (antibody, human IgG1, kappa, V domains shown, rat VH/VL on effector-null human IgG1 and human kappa) VH: QVQLKESGPGLVQPSETLSLTCTVSGFSISTYNVHWLRQPPGKGLEWMGMMWSGGSPDYNSALKSRLSISRDTSKNQVFLKMNSLQSEDTTTYYCARWGGGFDYWGQGVMVTVSS VL: DIVLTQSPTTLSVTPGETVSLSCRASHSIGTNLHWYQQKTNESPRLLIKFTSQSISGIPSRFSASGSGTDFTLNINNVEFDDVSSYFCQQTQSWPLTFGSGTKLEIKR |
| < 1 | > 133 | 21 | 324 | 0.0371 | 115000 | 18.7 | anti-E-selectin antibody 0159 chimera (antibody, human IgG1, kappa, V domains shown, rat VH/VL on effector-null human IgG1 and human kappa) VH: EVQLQQSGAELGKPGTSVKLSCKVSGYNIRSTYMHWVSQRPGKGLEWIGRIDPANGNTIYAEKFKRKATLTADTSSNTAYMQLSQLKSDDRAIYFCAMEVRVSFEYWGQGVMVTVSS VL: DIQMTQSPSFLSASVGDRVTINCKASQNINKYLDWYQQKLGEGPKLLIYYTNNLHTGIPSRFSGSGSGTDFTLTISSLQPEDVATYFCLQHDSGYTFGAGTKLELKR |
| < 1 | > 133 | 74.2 | 628 | 0.0549 | 87400 | 12.6 | anti-E-selectin antibody 0170 chimera (antibody, human IgG1, kappa, V domains shown, rat VH/VL on effector-null human IgG1 and human kappa) VH: EVQLQQSGAELGKPGTSVKLSCKVSGYSIRSTYMHWVNQRPGKGLEWVGRIDPANGNTIYAERFKNKATLTADTSSNTAYMQLSQLKSDDTAIYFCAVEILGIFDYWGQGVMVTVSS VL: DIQMTQSPSFLSASVGDRVTINCKASQNIDKYLDWYQQKLGEAPKLLMYNTNSLHTGIPSRFSGSGSGTDFTLTISSLQPEDVATYFCLQHNSGYTFGAGTKLELKR |
